Measurements taken from US20120251547A1 (Amgen, published 2012).
Positions count from the first letter of the chain named. Each block holds one binder with its values, some of them ahead of it.

Tests used:
[1] = biological target: T1, huIL-17RA-FLAG-polyHis (human, UniProt Q96F46 33-320); assay: binning; IL-17RA held by bead mAb J
T1 construct: also called IL-17RA-FLAG-pHis; wild-type IL-17RA

[2] = biological target: human IL-17RA (form used in the low resolution BIAcore not stated) (human, UniProt Q96F46 33-320, limits assumed); assay: low resolution BIAcore, subcloned hybridoma
[3] = biological target: T2, chimera D; assay: Bio-Plex titration on His-captured chimera;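 also: binding of anti-IL-17RA antibodies (4-fold titration across about 5 logs, 1 h) to His-captured IL-17RA chimeras on multiplexed beads, MFI read as percent of maximal wild-type human IL-17RA signal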
T2 construct: human IL-17RA extracellular domain with mouse Domain D; column head 176-197; also called Construct D
T2 IL-17RA extracellular domain with FLAG-polyHis tag: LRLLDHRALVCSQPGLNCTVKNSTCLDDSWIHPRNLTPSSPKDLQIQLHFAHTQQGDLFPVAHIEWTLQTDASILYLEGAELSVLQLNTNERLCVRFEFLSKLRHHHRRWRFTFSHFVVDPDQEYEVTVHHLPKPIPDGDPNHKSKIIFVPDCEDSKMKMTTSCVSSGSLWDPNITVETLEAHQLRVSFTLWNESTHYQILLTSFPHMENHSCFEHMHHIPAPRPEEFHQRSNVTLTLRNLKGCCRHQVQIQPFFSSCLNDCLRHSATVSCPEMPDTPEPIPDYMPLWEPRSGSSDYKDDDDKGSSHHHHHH

[4] = biological target: T3, chimera J; assay: Bio-Plex titration on His-captured chimera;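 also: binding of anti-IL-17RA antibodies (4-fold titration across about 5 logs, 1 h) to His-captured IL-17RA chimeras on multiplexed beads, MFI read as percent of maximal wild-type human IL-17RA signal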
T3 construct: human IL-17RA extracellular domain with mouse Domains D and E; column head D+E; also called Construct J

[5] = biological target: T1, huIL-17RA-FLAG-polyHis; assay: SPR Biacore 3000, mAb captured on anti-human IgG CM4 chip, soluble huIL-17RA-FLAG-polyHis as analyte, 25 C, 1:1 model
[6] = biological target: T1, huIL-17RA-FLAG-polyHis; assay: Bio-Plex, His-tagged wild-type huIL-17RA on pentaHis beads, antibody titration, PE anti-human IgG Fc
[7] = biological target: T4, chimera F; assay: Bio-Plex titration on His-captured chimera; cell not bold in the scan
T4 construct: human IL-17RA extracellular domain with mouse Domain F; column head 229-319; also called Construct F

[8] = biological target: D152R IL-17RA mutant (human, UniProt Q96F46 33-320); assay: Bio-Plex titration on His-captured D152R mutant
[9] = biological target: T1, huIL-17RA-FLAG-polyHis; assay: binning; IL-17RA held by bead mAb L
[10] = biological target: human IL-17RA, full-length, on cells (human, UniProt Q96F46 33-866); assay: cell-based or functional assay
[11] = biological target: T1, huIL-17RA-FLAG-polyHis; assay: binning; IL-17RA held by bead mAb N
[12] = biological target: T5, muIL-17RA-FLAG-polyHis (mouse, UniProt Q60943 32-322); assay: Bio-Plex, His-tagged muIL-17RA on pentaHis beads, antibody titration
T5 construct: also called mouse IL-17RA; mu WT
T5 sequence (Q60943 32-322 limits assumed): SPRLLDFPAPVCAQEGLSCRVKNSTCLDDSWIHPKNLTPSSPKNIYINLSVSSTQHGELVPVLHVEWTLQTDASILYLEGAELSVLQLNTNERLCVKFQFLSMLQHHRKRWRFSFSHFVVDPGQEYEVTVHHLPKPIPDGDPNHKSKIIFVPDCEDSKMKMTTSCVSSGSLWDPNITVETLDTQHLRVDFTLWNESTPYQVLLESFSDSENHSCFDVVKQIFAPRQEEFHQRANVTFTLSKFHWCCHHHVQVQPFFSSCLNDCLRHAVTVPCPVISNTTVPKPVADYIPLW

[13] = biological target: T6, chimera M; assay: Bio-Plex titration on His-captured chimera; cell bold in heavy box (shaded: lost binding)
T6 construct: human IL-17RA extracellular domain with mouse Domains C and F; also called Construct M

[14] = biological target: T7, chimera K; assay: as above
T7 construct: human IL-17RA extracellular domain with mouse Domains A and F; also called Construct K

[15] = biological target: T8, chimera L; assay: as above
T8 construct: human IL-17RA extracellular domain with mouse Domains B and F; B+F; also called Construct L

[16] = biological target: T4, chimera F; assay: Bio-Plex titration on His-captured chimera;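 also: binding of anti-IL-17RA antibodies (4-fold titration across about 5 logs, 1 h) to His-captured IL-17RA chimeras on multiplexed beads, MFI read as percent of maximal wild-type human IL-17RA signal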
[17] = biological target: T6, chimera M; assay: Bio-Plex titration on His-captured chimera;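 also: binding of anti-IL-17RA antibodies (4-fold titration across about 5 logs, 1 h) to His-captured IL-17RA chimeras on multiplexed beads, MFI read as percent of maximal wild-type human IL-17RA signal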
[18] = biological target: T7, chimera K; assay: Bio-Plex titration on His-captured chimera
[19] = biological target: T9, cynomolgus IL-17RA, on cells (cynomolgus); assay: FACS competition: non-clonal supernatant inhibiting biotin-huIL-17A (competitor) binding to cyno IL-17RA+ CHO cells
T9 construct: whole, on cells; also called CHO-cynoIL-17RA; cyno IL-17RA+ CHO cells

- normalized MFI [1]: 2900
- Kd [2]: 14.9 nM
- EC50 [3]: 0.059 nM
- EC50 [4]: 0.064 nM
- Ka [5]: 1.01e+08 M⁻¹
- Kd [5]: 9.88 nM
- koff [5]: 0.00101 s⁻¹
- kon [5]: 102000 M⁻¹ s⁻¹
- EC50 [6]: 0.061 nM
- EC50 [7]: 3.1 µM
- EC50 (read off the curve) [8]: ~0.07 nM
- normalized MFI [9]: 3590
- IL-17A/HFF IC50 [10]: 0.33 nM
- IL-17A/lung fibroblast IC50 [10]: 0.081 nM
- IL-17F/HFF IC50 [10]: 0.073 nM
- normalized MFI [11]: 3230
- binding result [12]: no binding
- EC50 [13]: 1.55 nM
- EC50 [14]: 31.3 nM
- EC50 cell printed as zero (binding ablated) [15]: 0 nM
B1: AMH18/AML18 (antibody, IgG2, V domains shown)
VH: QVQLVQSGAEVKKPGASVKVSCKASGYSFTDYYMHWVRQAPGQGLEWMGWMHPNSGGTDLAQRFQGRVTMTRDTSISTAYMELSRLRSDDTAVYYCARGGYCSTLSCSFYWYFDLWGRGTLVTVSS
VL: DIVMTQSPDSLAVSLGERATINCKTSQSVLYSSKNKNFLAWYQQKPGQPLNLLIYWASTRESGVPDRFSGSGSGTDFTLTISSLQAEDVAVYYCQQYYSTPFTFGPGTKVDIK
notes: human mAb from IgG2 XenoMouse mice; also called AM-18; antibody G

- normalized MFI [1]: 23
- Kd [2]: 16.7 nM
- EC50 [16]: 0.026 nM
- EC50 [17]: 0.035 nM
- EC50 [18]: 0.017 nM
- EC50 [6]: 0.018 nM
- MFI [19]: 6
- normalized MFI [9]: -58
- normalized MFI [11]: 39
B2: AMH21/AML21 (antibody, IgG2, V domains shown)
VH: EVQLVESGGGSVQPGGSLRLSCAASGFTFSSYSMNWVRQAPGKGLEWVSIISSRSSIIHYADSVKGRFTISRDNAKNSLYLQMNSLRDEDTAVYYCARPKVGGGMDVWGQGTTVTVSS
VL: DIQMTQSPSSLSASVGDRVTITCRASQGISNYLAWYQQKPGKFPELLIYAASTLQSGVPSRFSGSGSGTDFTLTISSLQPEDVATYYCQKYNRAPFTFGPGTKVDIK
notes: human mAb from IgG2 XenoMouse mice; also called AM-21; antibody Q
- binding result [8]: no binding (tested: log [Ab] about 0.5 (about 3 nM))

- normalized MFI [1]: 26
- Kd [2]: 11.6 nM
- EC50 [16]: 0.029 nM
- EC50 [17]: 0.04 nM
- EC50 [18]: 0.022 nM
- EC50 [6]: 0.022 nM
- normalized MFI [9]: 15
- normalized MFI [11]: 24
B3: AMH20/AML20 (antibody, IgG2, V domains shown)
VH: B2 VH with S11L, I50F, S53A, I57T, H59Y
VL: B2 VL
notes: human mAb from IgG2 XenoMouse mice; also called AM-20; antibody R
- binding result [8]: no binding (tested: log [Ab] about 0.5 (about 3 nM))
